Results as given in article PMC8699147.
Where “and” joins values, the source holds several entries; their conditions need not be identical. Equal entries are not always repeated.

Target: T1, alpha-fetoprotein, P02771
T1 chain: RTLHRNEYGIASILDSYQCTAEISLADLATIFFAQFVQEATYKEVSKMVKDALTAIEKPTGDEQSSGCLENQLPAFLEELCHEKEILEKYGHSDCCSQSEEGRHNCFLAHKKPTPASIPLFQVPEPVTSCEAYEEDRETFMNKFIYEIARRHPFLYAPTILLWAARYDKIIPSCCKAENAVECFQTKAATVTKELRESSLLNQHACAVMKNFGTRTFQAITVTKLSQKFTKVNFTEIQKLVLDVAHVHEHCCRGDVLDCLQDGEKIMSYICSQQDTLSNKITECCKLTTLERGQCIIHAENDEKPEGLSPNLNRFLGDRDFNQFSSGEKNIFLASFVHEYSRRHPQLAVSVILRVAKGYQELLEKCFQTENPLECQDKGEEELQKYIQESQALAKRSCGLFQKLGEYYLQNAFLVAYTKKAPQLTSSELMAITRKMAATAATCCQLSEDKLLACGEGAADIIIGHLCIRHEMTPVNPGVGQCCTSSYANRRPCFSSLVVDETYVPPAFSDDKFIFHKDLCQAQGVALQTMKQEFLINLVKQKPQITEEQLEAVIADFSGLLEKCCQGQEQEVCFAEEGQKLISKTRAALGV
Assay: native gel or EMSA; native 10% PAGE without SDS of calibrator S1 of VIDAS AFP, 150 V, running buffer 0.025 M TRIS-Base pH 8.3, 0.192 M glycine, Coomassie Blue staining
Conditions: remark: other sources report otherwise

B1: alpha-fetoprotein, P02771 19-609 (natural protein)
chain: RTLHRNEYGIASILDSYQCTAEISLADLATIFFAQFVQEATYKEVSKMVKDALTAIEKPTGDEQSSGCLENQLPAFLEELCHEKEILEKYGHSDCCSQSEEGRHNCFLAHKKPTPASIPLFQVPEPVTSCEAYEEDRETFMNKFIYEIARRHPFLYAPTILLWAARYDKIIPSCCKAENAVECFQTKAATVTKELRESSLLNQHACAVMKNFGTRTFQAITVTKLSQKFTKVNFTEIQKLVLDVAHVHEHCCRGDVLDCLQDGEKIMSYICSQQDTLSNKITECCKLTTLERGQCIIHAENDEKPEGLSPNLNRFLGDRDFNQFSSGEKNIFLASFVHEYSRRHPQLAVSVILRVAKGYQELLEKCFQTENPLECQDKGEEELQKYIQESQALAKRSCGLFQKLGEYYLQNAFLVAYTKKAPQLTSSELMAITRKMAATAATCCQLSEDKLLACGEGAADIIIGHLCIRHEMTPVNPGVGQCCTSSYANRRPCFSSLVVDETYVPPAFSDDKFIFHKDLCQAQGVALQTMKQEFLINLVKQKPQITEEQLEAVIADFSGLLEKCCQGQEQEVCFAEEGQKLISKTRAALGV
With B1 the stoichiometry N was 2 and 3 and 4.
